Test results reported in patent publication US6632621B1, “G protein-coupled receptor-like receptors and modulators thereof” (priority 1999, dated 2003).
Where no end group is shown, it is not given here. [ ]: non-standard residue; d: D form. Tyr(3-I) = N[C@@H](Cc1ccc(O)c(I)c1)C(=O)O

Key:
[1] = target: T1, CEGPCR3 receptor (Caenorhabditis elegans, UniProt P90745); assay: [35S]GTPγS binding assay, membranes of CHO cells transiently transfected with CEGPCR3; format: biochemical, C. elegans
T1 sequence (P90745 1-376): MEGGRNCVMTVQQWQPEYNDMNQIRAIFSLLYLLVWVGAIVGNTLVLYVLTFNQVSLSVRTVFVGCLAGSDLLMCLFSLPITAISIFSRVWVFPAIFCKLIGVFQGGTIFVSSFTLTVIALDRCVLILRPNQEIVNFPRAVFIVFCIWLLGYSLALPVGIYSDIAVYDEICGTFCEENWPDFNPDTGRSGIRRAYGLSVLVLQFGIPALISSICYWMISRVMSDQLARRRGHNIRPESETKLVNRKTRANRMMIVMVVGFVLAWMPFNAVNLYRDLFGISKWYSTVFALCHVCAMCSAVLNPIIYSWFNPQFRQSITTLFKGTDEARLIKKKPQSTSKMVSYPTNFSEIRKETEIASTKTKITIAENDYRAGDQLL
Description: (§1) Recombinant pCR3.1 clones encoding invertebrate GPCR-like receptors were transformed into wild-type CHO-K1 cells and functional expression was achieved using a temperature-shift incubation protocol. The CHO-K1 cells were cultured at 37° C. in a humidified atmosphere of 5% CO2 in air in DMEM medium supplemented with 10% heat-inactivated fetal bovine serum (i.e., FBS), 10 μg/ml gentamicin, and 0.1 mM nonessential amino acids to give complete DMEM medium. Additionally, for incubations at temperatures lower than 37° C., the medium was fortified with 10 mM HEPES (pH 7.4). Cells were transfected with recombinant pCR3.1 clones containing GPCR-like receptor DNAs, using LipofectAMINE PLUS™, essentially according to the manufacturer's instructions. […] In separate plastic tubes, PLUS (20 μl/plate; Life Technologies) was added to 0.75 ml/plate of recombinant plasmid DNA in OptiMEM (5 μg/plate; Gibco/BRL—Life Technologies), mixed and incubated at room temperature for 15 minutes. Separately, LipofectAMINE (30 μl/plate) was mixed with 0.75 ml OptiMEM and added to the pre-complexed DNA/PLUS mixture and incubated at room temperature for 15 minutes. The culture medium was then replaced with serum-free transfection medium (DMEM, 5 ml/plate). The DNA-PLUS-LipofectAMINE complex was then added to the plates (1.5 ml/plate) and mixed gently into the medium, followed by a 3 hour incubation at 37° C. in 5% CO2. At this time, the medium was supplemented with complete DMEM medium containing 20% FBS (6.5 ml/plate) and incubation was continued at 37° C. in 5% CO2. After a total of 24 hours at 37° C. in 5% CO2, the medium was replaced with complete DMEM medium fortified with 10 mM HEPES (10 ml/plate) and the cells were moved to an incubator maintained at 28-30° C. in a humidified atmosphere of 5% CO2 in air. The incubation continued for an additional 24 hours, typically at the lower temperature indicated above. A plasmid encoding Green Fluorescent Protein (i.e., GFP, 4 μg/plate) was used for transient GFP expression in CHO-K1 cells to estimate the transfection yields under the same conditions as used for GPCR-like receptor polynucleotides.
(§2) To assess expression, membranes were prepared from transfected CHO-K1 cells. Transfected cells were washed once with ice-cold Dulbecco's phosphate-buffered saline (i.e., PBS), 5 ml per 10 cm plate, and the cells were scraped into 5 ml of the same buffer. Cell suspensions from multiple plates were combined and centrifuged at 500×g for 10 minutes at 4° C. The cell pellet was reconstituted in ice-cold TEE (25 mM Tris, pH 7.4, 5 mM EGTA, 5 mM EDTA). Convenient aliquots were snap-frozen in liquid nitrogen and stored at −70° C. After thawing, the cells were homogenized and centrifuged at 500×g for 5 minutes at 4° C. to pellet nuclei and unbroken cells. Tile supernatant was centrifuged at 47,000×g for 30 minutes at 4° C. The membrane pellet was washed once with TEE, resuspended in 20 mM HEPES, pH 7.4, 100 mM NaCl, 10 mM MgCl2, 1 mM EDTA (assay buffer), distributed into aliquots of 0.5-1.0 ml, and frozen in liquid nitrogen. Membrane aliquots were stored at −70° C. Membrane protein concentration was determined using the BCA Protein Assay Reagent from Pierce (Rockford, Ill.), with bovine serum albumin (i.e., BSA) as a standard.
(§3) Aliquots of cell membranes prepared as described above and stored at −70° C. were thawed, homogenized, and diluted into buffer containing 20 mM HEPES, pH 7.4, 10 mM MgCl2, 1 mM EDTA, and 100 mM NaCl at a concentration of 10-50 μg/ml. Reaction mixtures were prepared in 96-well polypropylene plate, Nunc. Twenty microliters of a 10× putative modulator compound (including but not limited to potential peptide ligands) solution or a water control (20 μl), 18.2 µM GDP (0.11 ml, 10 μM final concentration), and a membrane preparation were mixed and placed on ice. The modulator/ligand-GDP-membrane mixtures were incubated for 20 minutes at room temperature on a shaking platform and then placed on ice.

[2] = target: T2, CEGPCR12h receptor (Caenorhabditis elegans, UniProt Q20275); assay: [35S]GTPγS binding assay, CEGPCR12h expressed in CHO cells; format: biochemical, C. elegans; settings: Table 11; one range for the group; results apply to all CEGPCR12 isoforms; read-out: EC50 range
T2 sequence (Q20275 1-402): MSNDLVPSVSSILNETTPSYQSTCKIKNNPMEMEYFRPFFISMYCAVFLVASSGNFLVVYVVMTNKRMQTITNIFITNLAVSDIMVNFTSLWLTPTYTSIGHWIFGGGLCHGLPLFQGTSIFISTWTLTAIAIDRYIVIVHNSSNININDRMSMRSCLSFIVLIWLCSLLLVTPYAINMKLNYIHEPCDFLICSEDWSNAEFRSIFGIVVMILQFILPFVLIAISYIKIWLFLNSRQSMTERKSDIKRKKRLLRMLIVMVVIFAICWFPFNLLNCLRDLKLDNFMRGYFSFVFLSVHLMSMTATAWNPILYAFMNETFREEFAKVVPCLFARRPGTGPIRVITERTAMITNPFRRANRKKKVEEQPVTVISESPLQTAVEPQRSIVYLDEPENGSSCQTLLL
Description: as §1, §2, §3

[3] = target: T3, CEGPCR5 (Caenorhabditis elegans, UniProt Q18179); assay: [35S]GTPγS binding assay, CEGPCR5 expressed in CHO cells; format: biochemical, C. elegans
T3 sequence (Q18179 1-402): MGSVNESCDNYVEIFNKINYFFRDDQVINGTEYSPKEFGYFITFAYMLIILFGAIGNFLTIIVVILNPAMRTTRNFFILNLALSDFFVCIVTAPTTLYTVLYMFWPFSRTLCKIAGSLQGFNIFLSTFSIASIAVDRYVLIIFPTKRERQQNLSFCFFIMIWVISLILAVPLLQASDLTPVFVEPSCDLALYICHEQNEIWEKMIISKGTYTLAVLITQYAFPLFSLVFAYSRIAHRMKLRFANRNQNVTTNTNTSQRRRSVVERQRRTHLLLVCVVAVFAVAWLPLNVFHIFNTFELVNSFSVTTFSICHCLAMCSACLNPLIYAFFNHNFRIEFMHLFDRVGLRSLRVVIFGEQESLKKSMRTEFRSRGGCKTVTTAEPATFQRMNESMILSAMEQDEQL
Description: as §1, §2, §3

[4] = target: T4, CEGPCR4 (C. elegans); assay: competition binding assay, CEGPCR4/CHO membranes; IC50 range printed once for block r9-r18
T4 construct: Expressed in CHO cells; also called CEGPCR4 receptor; CEGPCR4/CHO membranes
T4 chain: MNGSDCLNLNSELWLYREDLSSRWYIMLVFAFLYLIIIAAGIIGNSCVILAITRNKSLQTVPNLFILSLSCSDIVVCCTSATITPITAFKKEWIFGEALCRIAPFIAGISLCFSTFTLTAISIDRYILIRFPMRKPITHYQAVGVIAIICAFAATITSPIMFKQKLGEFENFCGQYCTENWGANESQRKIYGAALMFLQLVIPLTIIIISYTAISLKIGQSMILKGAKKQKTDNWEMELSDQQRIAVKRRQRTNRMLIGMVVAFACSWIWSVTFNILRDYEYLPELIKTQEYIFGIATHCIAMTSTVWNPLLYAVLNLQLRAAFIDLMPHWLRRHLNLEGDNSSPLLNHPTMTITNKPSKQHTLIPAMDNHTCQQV

[5] = target: T4, CEGPCR4; assay: competition binding assay, CEGPCR4/CHO membranes; IC50 range printed once for block r26-r35
[6] = target: T4, CEGPCR4; assay: competition binding assay, CEGPCR4/CHO membranes; IC50 range printed once for block r39-r54
[7] = EC50, single values, GTPγS assay
[8] = EC50 range, Table 7, one range for the group of peptides, cells 24 h 37° C. then 24 h 28° C.

Q: GGPQGPLRF-NH2 [GGPQGPLRF-NH2] was tested. Which EC50 [1, 7] did it give?
A: The EC50 was 152 nM.

Q: What about the EC50 [1, 8] of the same molecule?
A: The EC50 was 150 to 400 nM.

Q: And the EC50 [2]?
A: The EC50 was 1500 to 3000 nM.

Q: Which EC50 [1, 7] does the source give for GPSGPLRF-NH2 [GPSGPLRF-NH2] here?
A: The EC50 was 422 nM.

Q: What about the EC50 [1, 8] of the same molecule?
A: The EC50 was 150 to 400 nM.

Q: What does the source list for GNSFLRF-NH2 [GNSFLRF-NH2]?
A: EC50 [1, 7]: 7900 nM; EC50 ([1]; EC50 range, Table 7, cells 24 h 37° C. then 24 h 28° C.): ~8000 nM; receptor activation by matched ligand ([1]; membranes from cells transfected and maintained at 37° C.): not detectably activated; potency lower than that of the two C. elegans flp15 peptides ([1]; ratio of EC50 values): 19-52 fold; ligand-induced [35S]GTPγS binding ([1]; temperature shift to 28° C. 24 hours after transfection): significant stimulation; EC50 [3]: 80 to 800 nM

Q: Does KSVPGVLRF-NH2 (flp18) [KSVPGVLRF-NH2] bind [4]?
A: Result: binds

Q: Does ASPSFIRF-NH2 (flp4) [ASPSFIRF-NH2] bind [4]?
A: Result: binds

Q: Does TNRNFLRF-NH2 [TNRNFLRF-NH2 (Lobster peptide II)] bind [5]?
A: Result: binds

Q: Does SDNFMRF-NH2 [SDNFMRF-NH2] bind [5]?
A: Result: binds

Q: Does PDNFMRF-NH2 [PDNFMRF-NH2] bind [5]?
A: Result: binds

B1: 3-Iodo-Y-GVLRF-NH2 (peptide)
peptide: [Tyr(3-I)]GVLRF-NH2
modifications: N-terminus assumed
SMILES: CC(C)C[C@H](NC(=O)[C@@H](NC(=O)CNC(=O)[C@@H](N)Cc1ccc(O)c(I)c1)C(C)C)C(=O)N[C@@H](CCCNC(=N)N)C(=O)N[C@@H](Cc1ccccc1)C(N)=O
notes: synthetic
Q: Does B1 bind [6]?
A: Result: binds

B2: 3-Iodo-Y-VPGVLRF-NH2 (peptide)
peptide: [Tyr(3-I)]VPGVLRF-NH2
modifications: N-terminus assumed
SMILES: CC(C)C[C@H](NC(=O)[C@@H](NC(=O)CNC(=O)[C@@H]1CCCN1C(=O)[C@@H](NC(=O)[C@@H](N)Cc1ccc(O)c(I)c1)C(C)C)C(C)C)C(=O)N[C@@H](CCCNC(=N)N)C(=O)N[C@@H](Cc1ccccc1)C(N)=O
notes: synthetic
Q: Does B2 bind [6]?
A: Result: binds

B3: NGAPQPFVRF-NH2 (peptide)
peptide: NGAPQPFVRF-NH2
notes: flp11 (species cell stands one row higher, r34c4)
Q: Does B3 bind [5]?
A: Result: binds

Q: Does EIVFHQISPIFFRF-NH2 (flp14 as printed) [EIVFHQISPIFFRF-NH2] bind [5]?
A: Result: binds

Q: Does DVPGVLRF-NH2 (flp18) [DVPGVLRF-NH2] bind [6]?
A: Result: binds

Q: Does YVPGVLRF-NH2 (synthetic) [Y-VPGVLRF-NH2] bind [6]?
A: Result: binds

Q: Does SVPGVLRF-NH2 (flp18) [SVPGVLRF-NH2] bind [4]?
A: Result: binds

Q: Does GGPQGPLRF-NH2 (flp15) [GGPQGPLRF-NH2] bind [5]?
A: Result: binds

Q: Does YDVPGVLRF-NH2 (synthetic) [Y-DVPGVLRF-NH2] bind [6]?
A: Result: binds

Q: Does SAEPFGTMRF-NH2 (not fully specified; printed as SAEPFGTMRF-NH2, flp3) [SAEPFGTMRF-NH2] bind [5]?
A: Result: binds

Q: Does EIPGVLRF-NH2 (flp18) [EIPGVLRF-NH2] bind [4]?
A: Result: binds

Q: Does DFDGAMPGVLRF-NH2 (flp18) [DFDGAMPGVLRF-NH2] bind [4]?
A: Result: binds

Q: Does SEVPGVLRF-NH2 (flp18) [SEVPGVLRF-NH2] bind [4]?
A: Result: binds

Q: Does SPLGTMRF-NH2 (flp3) [SPLGTMRF-NH2] bind [5]?
A: Result: binds
